Source: the Immune Epitope Database (IEDB)

Biological target: HLA-A*68:02
Assay: IEDB peptide-MHC binding, cellular MHC/competitive/fluorescence; ≥ and ≤ were set here for values at or beyond the usual limits of such assays
Conditions: source organism: Hepacivirus hominis

Row | Sequence | IC50 [nM]
1 | ILLSRCLWWT | ≥ 70000
2 | KLFPRLPGI | 40200
3 | KLLPQLPGV | 42400
4 | LLLLSVGVGI | 52600
5 | LLLSTTEWQV | 10100
6 | LLMALPHQA | 9880
7 | LLSTTEWQV | 27300
8 | LLSVGVGIYL | 20100
9 | LLYFILFFV | 23000
10 | LLYFILFFVA | ≥ 70000
11 | MLCLLLLSV | 15400
12 | MLLIAQAEA | 6150
13 | MLVNGDDLVV | 8980

Same assay, conditions: source organism: Mammarenavirus choriomeningitidis

Row | Sequence | IC50 [nM]
14 | LSAEELMSL | 5820

Same assay, conditions: source organism: Mammarenavirus lassaense

Row | Sequence | IC50 [nM]
15 | LLMEGLKLLS | 8470
16 | LLWDYMCIS | 12700
17 | LNISGYNFSL | 6000

Same assay, conditions: source organism: Mammarenavirus machupoense

Row | Sequence | IC50 [nM]
18 | LLDCIMYQS | 11300

Same assay, conditions: source organism: SARS-CoV1

Row | Sequence | IC50 [nM]
19 | KLFTIAMWLL | 9420
20 | KLLIVLTCI | 5470
21 | KLWAQCVQL | 23100
22 | LLDDFVEII | 30200
23 | LLLEWLAEVV | 10800
24 | LLLSICLGSL | 54900
25 | LLVAAGMEA | 19300
26 | LLVTLAILTA | 16700
27 | LMLKATLLCV | 8860
28 | LMWFIISIV | 18400
29 | LVFLILCFT | 6680
30 | LVTSFLLMIV | 5740
31 | NLAPHLLLIV | 7240

Same assay, conditions: source organism: Vaccinia virus WR

Row | Sequence | IC50 [nM]
32 | ILHNIYRLFT | 40900
33 | ILSLETVKM | 9700
34 | ILSNKLLYAA | 12000
35 | IMAFILGIII | 14700
36 | IMEIVSHLRA | 19700
37 | IMRNFLRSI | 62700
38 | IMRNFLRSIA | 54200
39 | ITLILSNKLL | 6490
40 | IVSHLRASTT | 60600
41 | KIIAVFDSKL | 31700
42 | KIILFQNNDI | 17200
43 | KILSDENYL | 46600
44 | KILSDENYLL | ≥ 70000
45 | KINEMVDEL | 48400
46 | KINPLLDEPL | 10100
47 | KIVQLPKRGV | 62600
48 | KLLNMRDLI | 30200
49 | KLLNMRDLIV | ≥ 70000
50 | KLLSTSNVIT | ≥ 70000

Row | Sequence | IC50 [nM]
51 | KLPTWLGAA | ≥ 70000
52 | KLPTWLGAAI | 6370
53 | KLYGYASLT | 11000
54 | KTIISEEYL | 10900
55 | LAELLEMKYA | 23300
56 | LALTDVEKRI | 14900
57 | LILSNKLLYA | 9790
58 | LIYRQLTSNV | 6390
59 | LLEQLIENI | ≥ 70000
60 | LLKCVSDSWL | 9850
61 | LLLENKSLTI | 9580
62 | LLNMRDLIV | 23200
63 | LLNMRDLIVT | 33200
64 | LLNVQTLISL | 14500
65 | LLPLTSLVI | ≥ 70000
66 | LLVQYGAKI | 6430
67 | LQISRVNDL | ≥ 70000
68 | MLDDFSAGA | 10500
69 | MMQNDYGGM | ≥ 70000

Biological target: HLA-A*02:03
Assay: IEDB peptide-MHC binding, purified MHC/competitive/radioactivity; ≥ and ≤ were set here for values at or beyond the usual limits of such assays
Conditions: source organism: Hepacivirus hominis

Row | Sequence | IC50 [nM]
70 | ILLSRCLWWT | 1100
71 | KLFPRLPGI | 0.5
72 | KLLPQLPGV | 5.2
73 | LLLLSVGVGI | 605
74 | LLLSTTEWQV | 101
75 | LLMALPHQA | 10
76 | LLSTTEWQV | 95
77 | LLSVGVGIYL | 568
78 | LLYFILFFV | 323
79 | LLYFILFFVA | 4700
80 | MLCLLLLSV | 263
81 | MLLIAQAEA | 123
82 | MLVNGDDLVV | 104

Same assay, conditions: source organism: Mammarenavirus choriomeningitidis

Row | Sequence | IC50 [nM]
83 | LSAEELMSL | 706

Same assay, conditions: source organism: Mammarenavirus lassaense

Row | Sequence | IC50 [nM]
84 | LLMEGLKLLS | 40
85 | LLWDYMCIS | 597
86 | LNISGYNFSL | 4550

Same assay, conditions: source organism: Mammarenavirus machupoense

Row | Sequence | IC50 [nM]
87 | LLDCIMYQS | 2270

Same assay, conditions: source organism: SARS-CoV1

Row | Sequence | IC50 [nM]
88 | KLFTIAMWLL | 709
89 | KLLIVLTCI | 1940
90 | KLWAQCVQL | 194
91 | LLDDFVEII | 523
92 | LLLEWLAEVV | 0.81
93 | LLLSICLGSL | 104
94 | LLVAAGMEA | 17
95 | LLVTLAILTA | 43
96 | LMLKATLLCV | 21
97 | LMWFIISIV | 7.2
98 | LVFLILCFT | 1850
99 | LVTSFLLMIV | 12
100 | NLAPHLLLIV | 1.1

Same assay, conditions: source organism: Vaccinia virus WR

Row | Sequence | IC50 [nM]
101 | ILHNIYRLFT | 11
102 | ILSLETVKM | 12
103 | ILSNKLLYAA | 1110
104 | IMAFILGIII | 3160
105 | IMEIVSHLRA | 396
106 | IMRNFLRSI | 0.4
107 | IMRNFLRSIA | 122
108 | ITLILSNKLL | 4690
109 | IVSHLRASTT | 111
110 | KIIAVFDSKL | 57
111 | KIILFQNNDI | 2000
112 | KILSDENYL | 1170
113 | KILSDENYLL | 3770
114 | KINEMVDEL | 76
115 | KINPLLDEPL | 304
116 | KIVQLPKRGV | 51
117 | KLLNMRDLI | 329
118 | KLLNMRDLIV | 29
119 | KLLSTSNVIT | 3350

Row | Sequence | IC50 [nM]
120 | KLPTWLGAA | 8
121 | KLPTWLGAAI | 123
122 | KLYGYASLT | 22
123 | KTIISEEYL | 1220
124 | LAELLEMKYA | 1040
125 | LALTDVEKRI | 403
126 | LILSNKLLYA | 122
127 | LIYRQLTSNV | 7.5
128 | LLEQLIENI | 1960
129 | LLKCVSDSWL | 118
130 | LLLENKSLTI | 985
131 | LLNMRDLIV | 1.2
132 | LLNMRDLIVT | 557
133 | LLNVQTLISL | 16
134 | LLPLTSLVI | 621
135 | LLVQYGAKI | 358
136 | LQISRVNDL | 11
137 | MLDDFSAGA | 73
138 | MMQNDYGGM | 2740

Biological target: HLA-A*02:01
Assay: as above
Conditions: source organism: Hepacivirus hominis

Row | Sequence | IC50 [nM]
139 | ILLSRCLWWT | 293
140 | KLFPRLPGI | 1.3
141 | KLLPQLPGV | 1.7
142 | LLLLSVGVGI | 764
143 | LLLSTTEWQV | 7.1
144 | LLMALPHQA | 73
145 | LLSTTEWQV | 67
146 | LLSVGVGIYL | 18
147 | LLYFILFFV | 164
148 | LLYFILFFVA | 1120
149 | MLCLLLLSV | 142
150 | MLLIAQAEA | 82
151 | MLVNGDDLVV | 56

Same assay, conditions: source organism: Mammarenavirus choriomeningitidis

Row | Sequence | IC50 [nM]
152 | LSAEELMSL | 2210

Same assay, conditions: source organism: Mammarenavirus lassaense

Row | Sequence | IC50 [nM]
153 | LLMEGLKLLS | 12
154 | LLWDYMCIS | 45
155 | LNISGYNFSL | 375

Same assay, conditions: source organism: Mammarenavirus machupoense

Row | Sequence | IC50 [nM]
156 | LLDCIMYQS | 1100

Same assay, conditions: source organism: SARS-CoV1

Row | Sequence | IC50 [nM]
157 | KLFTIAMWLL | 30
158 | KLLIVLTCI | 229
159 | KLWAQCVQL | 4.7
160 | LLDDFVEII | 51
161 | LLLEWLAEVV | 0.37
162 | LLLSICLGSL | 45
163 | LLVAAGMEA | 51
164 | LLVTLAILTA | 33
165 | LMLKATLLCV | 19
166 | LMWFIISIV | 9.8
167 | LVFLILCFT | 507
168 | LVTSFLLMIV | 775
169 | NLAPHLLLIV | 206

Same assay, conditions: source organism: Vaccinia virus WR

Row | Sequence | IC50 [nM]
170 | ILHNIYRLFT | 231
171 | ILSLETVKM | 204
172 | ILSNKLLYAA | 51
